According to publication PMC4314665, “Diversity of two-component systems: insights into the signal transduction mechanism by the Staphylococcus aureus two-component system GraSR” (F1000Research, 2014):

What was measured:
[1] = target: T1, GraR (Staphylococcus aureus Mu50) (UniProt Q932F1); assay: DNase I footprinting; details: 10 ng 32P-labelled promoter DNA, buffer, salt, pH and temperature not given (as described previously, ref 17)
T1 sequence: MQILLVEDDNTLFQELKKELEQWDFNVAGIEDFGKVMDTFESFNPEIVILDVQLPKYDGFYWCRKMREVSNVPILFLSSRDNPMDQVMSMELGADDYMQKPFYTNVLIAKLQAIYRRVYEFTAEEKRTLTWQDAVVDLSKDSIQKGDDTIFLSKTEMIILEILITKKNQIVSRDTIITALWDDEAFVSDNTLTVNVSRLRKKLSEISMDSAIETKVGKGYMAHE

[2] = test system: GraR (Staphylococcus aureus Mu50); assay: DNase I footprinting; details: 10 ng 32P-labelled promoter DNA, buffer, salt, pH and temperature not given (as described previously, ref 17)
[3] = test system: GraR C (C-terminal DNA-binding domain) (Staphylococcus aureus Mu50); assay: DNase I footprinting; details: 10 ng 32P-labelled promoter DNA, buffer, salt, pH and temperature not given (as described previously, ref 17)
[4] = target: the molecule itself; assay: SDS-PAGE in the presence and absence of DTT; purified GraX on SDS-PAGE with and without dithiothreitol; data not shown
[5] = target: T2, GST-BceS, cytoplasmic region of histidine kinase BceS (62-334) fused to GST (B. subtilis strain 168, UniProt O35044 62-334); assay: pull-down; GST-fused bait immobilised on glutathione-sepharose resin in 1 x PBS; prey added at bait:prey ratios of about 1:1 to 1:2, 30 min at room temperature; five to seven washes; elution with 10 mM reduced glutathione in 50 mM Tris pH 8.0; SDS-PAGE; details: both partners purified
T2 construct: Histidine kinase BceS (334 amino acids), B. subtilis strain 168, cytoplasmic region, residues 62-334; Cloned in pGEX-4T-1; source: E. coli BL21(DE3), purified (glutathione-sepharose); not shown: GST, N-terminal, kept
T2 sequence: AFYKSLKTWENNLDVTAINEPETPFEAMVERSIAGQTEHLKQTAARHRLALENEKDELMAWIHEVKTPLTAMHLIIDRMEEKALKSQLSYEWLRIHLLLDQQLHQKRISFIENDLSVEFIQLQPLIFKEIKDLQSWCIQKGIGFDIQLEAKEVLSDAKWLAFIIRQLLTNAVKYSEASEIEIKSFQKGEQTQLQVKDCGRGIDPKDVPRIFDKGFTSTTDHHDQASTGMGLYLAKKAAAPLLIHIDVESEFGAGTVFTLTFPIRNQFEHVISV

In the case of “GGATCCTTTAGGTTTCATCTAAAATACTCCTTTAAACTGTAACCAAAAAACATATTACTCCACCTTTTAGTTACATATATATTATAATAGTAGCAAATGTTTTAAAATTTCAAAATACTGGAGGCTTTTTATGGCCCATATTATACGTAGAGTTAGTATCAAAGATGTAGAAAATTTCATTTCAATGAATTCCG (double strand) [graSR promoter]”, the binding [1] is reported as “no binding”.

Molecule PvraFG promoter has a Kd [2] of 0.8 µM and a Kd [3] of 2.4 µM.

B1: GraX, auxiliary protein (tagless) (natural protein)
chain: MKPKVLLAGGTGYIGKYLSEVIENDAELFAISKYPDNKKTDDVEMTWIQCDIFHYEQVVAAMNQIDIAVFFIDPTKNSAKITQSSARDLTLIAADNFGRAAAINQVKKVIYIPGSRYDNETIERLGAYGTPVETTNLVFKRSLVNVELQVSKYDDVRSTMKVVLPKGWTLKNVVNHFIAWMGYTKGTFVKTEKSHDQFKIYIKNKVRPLAVFKIEETADGIITLILLSGSLVKKYTVNQGKLEFRLIKESAVVYIHLYDYIPRLFWPIYYFIQAPMQKMMIHGFEVDCRIKDFQSRLKSGENMKYTK
notes: Auxiliary protein GraX, S. aureus strain Mu50, full length graX gene; Cloned in pET26b between NdeI and HindIII; Dimers seen by SDS-PAGE without DTT; also called untagged GraX; source: E. coli BL21(DE3), purified (SP-Sepharose cation exchange), to 90%
B1 was tested, and the “stoichiometry N” value [4] was 2.

B2: BceR, response regulator of Bacillus subtilis (natural protein)
chain: MFKLLLIEDDESLFHEIKDRLTGWSYDVYGIQDFSQVLQEFAAVNPDCVIIDVQLPKFDGFHWCRLIRSRSNVPILFLSSRDHPADMVMSMQLGADDFIQKPFHFDVLIAKIQAMFRRVHHYNTEPSTIKTWCGAAVDAEQNLVSNDKGSVELTKNEMFILKQLIEQKNKIVSREELIRSLWNDERFVSDNTLTVNVNRLRKKLDALQLGAYIETKVGQGYIAKEEDKFYD
notes: Response regulator BceR, B. subtilis strain 168; the bceR gene amplified with primers from the start to the stop codon; no extra amino acids on either terminus; Cloned in pET26b(+), untagged; source: E. coli BL21(DE3), purified (DEAE-Sepharose, heparin-sepharose), up to 90% purity
B2: binds [5].
